This is an account of results in IntAct's records for PubMed 19103591.

B1: Anti-sigma-E factor RseA (Escherichia coli (strain K12)), P0AFX7 (parent)
chain: MQKEQLSALMDGETLDSELLNELAHNPEMQKTWESYHLIRDSMRGDTPEVLHFDISSRVMAAIEEEPVRQPATLIPEAQPAPHQWQKMPFWQKVRPWAAQLTQMGVAACVSLAVIVGVQHYNGQSETSQQPETPVFNTLPMMGKASPVSLGVPSEATANNGQQQQVQEQRRRINAMLQDYELQRRLHSEQLQFEQAQTQQAAVQVPGIQTLGTQSQ
partner: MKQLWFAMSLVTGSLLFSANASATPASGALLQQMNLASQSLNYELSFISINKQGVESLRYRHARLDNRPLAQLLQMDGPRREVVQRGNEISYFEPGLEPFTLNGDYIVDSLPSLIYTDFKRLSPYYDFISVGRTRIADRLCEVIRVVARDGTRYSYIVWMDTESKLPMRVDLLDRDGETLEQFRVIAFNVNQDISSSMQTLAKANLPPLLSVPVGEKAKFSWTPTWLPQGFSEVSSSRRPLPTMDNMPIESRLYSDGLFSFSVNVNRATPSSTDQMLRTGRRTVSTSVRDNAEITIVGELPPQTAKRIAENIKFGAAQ

One assay covers variants of B1. The conditions noted are these: with rseb_ecoli rseB.
Turning to MQKEQLSALMDGETLDSELLNELAHNPEMQKTWESYHLIRDSMRGDTPEVLHFDISSRVMAAIEEEPVRQPATLIPEAQPAPHQWQKMPFWQKVRPWAAQLTQMGVAACVSLAVIVGVQHYNGQSETSQQPETPVFNTLPMMGKASPVSLGVPSEATANNGQQQQVQEQRRRINAMLQDYELQRRAHSEQLQFEQAQTQQAAVQVPGIQTLGTQSQ [L186A], the “effect of a mutation on the interaction” value is on record as “decreasing interaction”.

Turning to MQKEQLSALMDGETLDSELLNELAHNPEMQKTWESYHLIRDSMRGDTPEVLHFDISSRVMAAIEEEPVRQPATLIPEAQPAPHQWQKMPFWQKVRPWAAQLTQMGVAACVSLAVIVGVQHYNGQSETSQQPETPVFNTLPMMGKASPVSLGVPSEATANNGQQQQVQEQRRRINAMLQDYELQRALHSEQLQFEQAQTQQAAVQVPGIQTLGTQSQ [R185A], the “effect of a mutation on the interaction” value is “decreasing interaction”.

For MQKEQLSALMDGETLDSELLNELAHNPEMQKTWESYHLIRDSMRGDTPEVLHFDISSRVMAAIEEEPVRQPATLIPEAQPAPHQWQKMPFWQKVRPWAAQLTQMGVAACVSLAVIVGVQHYNGQSETSQQPETPVFNTLPMMGKASPVSLGVPSEATANNGQQQQVQEQRRRINAMLQDYELQRRLASEQLQFEQAQTQQAAVQVPGIQTLGTQSQ [H187A], the “effect of a mutation on the interaction” value is “decreasing interaction”. Regarding MQKEQLSALMDGETLDSELLNELAHNPEMQKTWESYHLIRDSMRGDTPEVLHFDISSRVMAAIEEEPVRQPATLIPEAQPAPHQWQKMPFWQKVRPWAAQLTQMGVAACVSLAVIVGVQHYNGQSETSQQPETPVFNTLPMMGKASPVSLGVPSEATANNGQQQQVQEQRRRINAMLQDYELQRRLHAEQLQFEQAQTQQAAVQVPGIQTLGTQSQ [S188A], the “effect of a mutation on the interaction” value was “decreasing interaction”.

Variants of B1 are the subject of another assay. The conditions noted are these: with rseb_ecoli rseB. The source holds these as a separate data set.
In the case of MQKEQLSALMDGETLDSELLNELAHNPEMQKTWESYHLIRDSMRGDTPEVLHFDISSRVMAAIEEEPVRQPATLIPEAQPAPHQWQKMPFWQKVRPWAAQLTQMGVAACVSLAVIVGVQHYNGQSETSQQPETPVFNTLPMMGKASPVSLGVPSEATANNGQQQQVQEQRRRINAMLQDYELQRRCHSEQLQFEQAQTQQAAVQVPGIQTLGTQSQ [L186C], the “effect of a mutation on the interaction” value is recorded as “increasing interaction strength”. As to MQKEQLSALMDGETLDSELLNELAHNPEMQKTWESYHLIRDSMRGDTPEVLHFDISSRVMAAIEEEPVRQPATLIPEAQPAPHQWQKMPFWQKVRPWAAQLTQMGVAACVSLAVIVGVQHYNGQSETSQQPETPVFNTLPMMGKASPVSLGVPSEATANNGQQQQVQEQRRRCNAMLQDYELQRRLHSEQLQFEQAQTQQAAVQVPGIQTLGTQSQ [I173C], the “effect of a mutation on the interaction” value is “increasing interaction strength”. On to MQKEQLSALMDGETLDSELLNELAHNPEMQKTWESYHLIRDSMRGDTPEVLHFDISSRVMAAIEEEPVRQPATLIPEAQPAPHQWQKMPFWQKVRPWAAQLTQMGVAACVSLAVIVGVQHYNGQSETSQQPETPVFNTLPMMGKASPVSLGVPSEATANNGQQQQVQEQRRRINAMLQCYELQRRLHSEQLQFEQAQTQQAAVQVPGIQTLGTQSQ [D179C], for which the “effect of a mutation on the interaction” value is listed as “increasing interaction strength”.

The next assay covers variants of B1. To be noted: with rseb_ecoli rseB. This is another data set of the same source.
On to MQKEQLSALMDGETLDSELLNELAHNPEMQKTWESYHLIRDSMRGDTPEVLHFDISSRVMAAIEEEPVRQPATLIPEAQPAPHQWQKMPFWQKVRPWAAQLTQMGVAACVSLAVIVGVQHYNGQSETSQQPETPVFNTLPMMGKASPVSLGVPSEATANNGQQQQVQEQRRRANAMLQDYELQRRLHSEQLQFEQAQTQQAAVQVPGIQTLGTQSQ [I173A], for which the “effect of a mutation on the interaction” value is reported as “decreasing interaction”.

MQKEQLSALMDGETLDSELLNELAHNPEMQKTWESYHLIRDSMRGDTPEVLHFDISSRVMAAIEEEPVRQPATLIPEAQPAPHQWQKMPFWQKVRPWAAQLTQMGVAACVSLAVIVGVQHYNGQSETSQQPETPVFNTLPMMGKASPVSLGVPSEATANNGQQQQVQEQRRRINAMLQDYELQRRLHSAQLQFEQAQTQQAAVQVPGIQTLGTQSQ [E189A]: the “effect of a mutation on the interaction” value is reported as “decreasing interaction”.

The variants in another assay derive from B1. To be noted: with rseb_ecoli rseB. This is another data set of the same source.
Regarding MQKEQLSALMDGETLDSELLNELAHNPEMQKTWESYHLIRDSMRGDTPEVLHFDISSRVMAAIEEEPVRQPATLIPEAQPAPHQWQKMPFWQKVRPWAAQLTQMGVAACVSLAVIVGVQHYNGQSETSQQPETPVFNTLPMMGKASPVSLGVPSEATANNGQQQQVQEQRRRINAMLQDYELQRRLCSEQLQFEQAQTQQAAVQVPGIQTLGTQSQ [H187C], the “effect of a mutation on the interaction” value was “increasing interaction strength”.
